Values joined by “and” are separate entries in the source; they are usually repeats but may differ in a detail not shown here. Equal entries are not always repeated.

This is an account of results in patent US20230329245A1, “COMPOSITIONS AND METHODS OF USE THEREOF” (Curie Co. Inc., priority 2020, published 2023).

Common to all, as to type: cell-based
In assay [1] the test system is Yeast or bacterial starter cultures. The assay is described as follows: Tgase biocidal activity on yeast or bacterial cultures (Example 2). The conditions noted are these: where biocidal activity could be observed with both enzymes. The procedure: A variant form of Streptomyces mobaraensis transglutaminase having the amino acid sequence depicted in SEQ ID NO:6 was prepared by literature methods (Javitt, et al. (2017) BMC Biotechnol. 17:23) as previously described. Tgase activity was measured using the colorimetric hydroxamate activity assay (Folk and Cole (1965) J Biol Chemistry 240(7):2951-2960). Tgase cytotoxic activity was assessed either using OD600 or a commercially available kit (BacTiter-Glo™, Promega®, following manufacturer's protocol).
Yeast or bacterial starter cultures were grown as described previously. Tgase (SEQ ID NO:6) was added to each culture at 0.001-1 weight percent. The cultures were grown overnight at 30° C.-37° C. and growth curves were measured by a BioTek® Synergy Plate Reader.

Assay [2] has as its system C. parapsilosis ATCC 22019. The assay is described as follows: MIC determination, C. parapsilosis. Conditions: duplicate, listed as Tgase variant (SEQ ID NO: 6).
Assay [3] relates to A. brasiliensis ATCC 16404. The assay can be described thus: MIC determination, A. brasiliensis. Conditions: RPMI 1640 pH 7.0, 25° C., up to 7 days, duplicate. As to the method:
A variant form of Streptomyces mobaraensis transglutaminase having the amino acid sequence depicted in SEQ ID NO:6 was prepared by literature methods with a hexa-his-tag to aid in purification (Javitt, et al. (2017) BMC Biotechnol. 17:23). The cells were grown in shake flasks, lysed by homogenization, and the Tgase variant (SEQ ID NO:6) was isolated from the cell debris by centrifugation. The resulting semi-purified enzyme (clarified lysate) were compared on an SDS-PAGE gel, by spectroscopy, and activity for concentration of active enzyme. The Tgase variant (SEQ ID NO:6) was further purified by affinity column on a Ni-IMAC resin prior to MIC assay. Tgase activity was measured in the examples herein using a colorimetric hydroxamate activity assay (Folk and Cole (1965) J Biol Chemistry 240(7):2951-2960). The enzyme was diluted to a working stock concentration of 2 mg/mL in CAMHB or RPMI media (bacterial or fungal media). This was then 2-fold serial diluted ten times in the appropriate media in a 96-well master plate to generate 2× starting concentrations for MIC testing. […]
C. albicans MIC 96-well plate was incubated for 37° C. for 24 to 48 hours. […] After incubation, all 96-well plates were examined visually and on a spectrophotometer at absorbance OD650. […]

Assay [4] has as its system C. parapsilosis ATCC 22019. The assay is described as follows: Minimum fungicidal concentration (MFC), C. parapsilosis. Conditions: no colonies recovered, duplicate, listed as Tgase variant (SEQ ID NO: 6).
Assay [5] concerns A. brasiliensis ATCC 16404. The assay is described as follows: Minimum fungicidal concentration (MFC), A. brasiliensis. The conditions noted are these: no colonies recovered on SDA, duplicate. As to the method: Minimum fungicidal concentration (MFC) was determined by plating 10 microliters of liquid from each MFC test solution on the appropriate agar media for each test strain. The liquid was allowed to air dry in a biosafety cabinet, then the agar plates were incubated under the appropriate conditions: A. brasiliensis and C. albicans were grown on Sabouraud Dextrose Agar (SDA) plates. A. brasiliensis was grown at 25° C. for 5 to 7 days, while C. albicans was grown at 37° C. for 24 to 48 hours. Colony formation was then assessed. MFC is defined as the lowest concentration of the Tgase (SEQ ID NO:6) in which no colonies were recovered.

B1: Tgase (SEQ ID NO: 6): variant Streptomyces mobaraensis transglutaminase (SEQ ID NO:2) with N-terminal Methionine, C-terminal peptide linker and hexa-His-Tag (protein)
chain: MDPDDRVTPPAEPLDRMPDPYRPSYGRAETVVNNYIRKWQQVYSHRDGRKQQMTEEQREWLSYGCVGVTWVNSGQYPTNRLAFASFDEDRFKNELKNGRPRSGETRAEFEGRVAKESFDEEKGFQRAREVASVMNRALENAHDESAYLDNLKKELANGNDALRNEDARSPFYSALRNTPSFKERNGGNHDPSRMKAVIYSKHFWSGQDRSSSADKRKYGDPDAFRPAPGTGLVDMSRDRNIPRSPTSPGEGFVNFDYGWFGAQTEADADKTVWTHGNHYHAPNGSLGAMHVYESKFRNWSEGYSDFDRGAYVITFIPKSWNTAPDKVKQGWPLEHHHHHH
For B1, in assay [1], the “potency relative to Tgase SEQ ID NO:1” value was 10 fold. The MIC (commonly the lowest concentration that inhibits growth of the organism) in assay [2] is 250 µg/mL and 125 µg/mL; in assay [3], 62.5 µg/mL. The MFC (in general, the lowest tested concentration that kills the fungus rather than only halting it) is 250 µg/mL and 125 µg/mL in assay [4]; 125 µg/mL in assay [5].
